Experiment [1] addresses T1, Human ROBO1 RSK mutant overexpressed on HEK293 cells (human, UniProt Q9Y6N7 26-1651).
T1 construct: K137R and R139K already in the entry; also called ROBO1-RSK cells
Nature of the experiment: flow cytometry, Geo MFI ROBO1-RSK/ROBO2-KSR HEK293 cells, 0.1 µg/ml. In general terms: In flow cytometry, cells or beads pass a laser one at a time.

Experiment [2] addresses T2, Human ROBO2 KSR mutant overexpressed on HEK293 cells (human, UniProt Q9HCK4 22-1378).
T2 construct: R100K and K102R already in the entry
T2 sequence: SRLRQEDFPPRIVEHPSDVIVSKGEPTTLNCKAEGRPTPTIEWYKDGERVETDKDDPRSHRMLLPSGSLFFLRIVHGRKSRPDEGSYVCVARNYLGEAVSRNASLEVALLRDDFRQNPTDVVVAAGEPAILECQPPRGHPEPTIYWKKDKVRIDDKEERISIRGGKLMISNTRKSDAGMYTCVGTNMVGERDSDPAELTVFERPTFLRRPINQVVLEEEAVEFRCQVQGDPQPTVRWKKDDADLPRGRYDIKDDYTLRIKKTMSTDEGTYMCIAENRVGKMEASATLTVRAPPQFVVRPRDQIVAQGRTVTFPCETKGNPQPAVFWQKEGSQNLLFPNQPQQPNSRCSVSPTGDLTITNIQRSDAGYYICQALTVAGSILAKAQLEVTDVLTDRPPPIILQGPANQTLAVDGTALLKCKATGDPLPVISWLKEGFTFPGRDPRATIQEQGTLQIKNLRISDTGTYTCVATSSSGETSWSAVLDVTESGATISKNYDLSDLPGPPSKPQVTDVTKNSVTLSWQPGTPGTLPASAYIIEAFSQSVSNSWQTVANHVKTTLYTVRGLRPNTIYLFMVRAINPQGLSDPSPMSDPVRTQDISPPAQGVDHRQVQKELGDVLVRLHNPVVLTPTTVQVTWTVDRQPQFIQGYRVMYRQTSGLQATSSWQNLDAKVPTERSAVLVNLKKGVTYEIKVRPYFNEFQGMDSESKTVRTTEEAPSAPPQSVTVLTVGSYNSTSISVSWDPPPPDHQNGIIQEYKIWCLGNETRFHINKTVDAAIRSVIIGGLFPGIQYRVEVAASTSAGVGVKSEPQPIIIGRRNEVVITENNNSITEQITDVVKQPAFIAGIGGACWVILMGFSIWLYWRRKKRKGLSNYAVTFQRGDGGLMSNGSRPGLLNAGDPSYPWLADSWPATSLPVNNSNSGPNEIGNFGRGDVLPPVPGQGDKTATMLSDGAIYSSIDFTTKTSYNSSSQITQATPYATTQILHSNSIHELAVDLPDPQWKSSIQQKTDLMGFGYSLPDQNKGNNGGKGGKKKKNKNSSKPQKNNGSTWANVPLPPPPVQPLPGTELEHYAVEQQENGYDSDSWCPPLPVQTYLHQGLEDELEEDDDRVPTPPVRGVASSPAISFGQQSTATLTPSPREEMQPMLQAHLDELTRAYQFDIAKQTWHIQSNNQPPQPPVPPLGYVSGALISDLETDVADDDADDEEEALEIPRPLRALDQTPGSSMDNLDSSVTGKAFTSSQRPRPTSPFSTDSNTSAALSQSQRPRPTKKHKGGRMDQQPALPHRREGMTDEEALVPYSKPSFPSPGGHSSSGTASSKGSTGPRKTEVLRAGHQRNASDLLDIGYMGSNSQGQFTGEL
The experiment can be described thus: flow cytometry on HEK293 cells overexpressing the ROBO2-KSR mutant. As to the method:
The binding profile of Abcs35-J compared to Abcs35 was determined for human ROBO2, orthologs from cynomolgus monkey and rat, human ROBO1 and specificity for the RSK epitope from ROBO2 but not KSR from ROBO1. Binding was assessed by flow cytometry as described in Examples 2 (homolog specificity), Example 3 (ortholog reactivity) and Example 5 (RSK vs KSR epitope specificity). […] Binding of the antibodies was detected using a secondary fluorochrome conjugated anti-human IgG F(ab′)₂ antibody and samples analyzed on a Fortessa cytometer (BD Biosciences). […] FIGS. 16A-16F depicts binding profiles of Abcs35 (black circles) or Abcs35-J (grey squares) to human ROBO2 (FIG. 16A), cynomolgus monkey ROBO2 (FIG. 16B), rat ROBO2 (FIG. 16C), human ROBO1 (FIG. 16D), ROBO1 containing the ROBO2 RSK epitope (FIG. 16E) or ROBO2 containing the ROBO1 KSR epitope (FIG. 16 F).

Another experiment addresses T3, Human ROBO2 Ig1-Ig2-His (human, UniProt Q9HCK4 31-220).
T3 construct: the His tag is named only in the SPR paragraphs; the Octet and ELISA paragraphs print 'ROBO2 Ig1-Ig2' without a tag; also called ROBO2 Ig1-2; Human ROBO2 Ig 1,2
T3 sequence: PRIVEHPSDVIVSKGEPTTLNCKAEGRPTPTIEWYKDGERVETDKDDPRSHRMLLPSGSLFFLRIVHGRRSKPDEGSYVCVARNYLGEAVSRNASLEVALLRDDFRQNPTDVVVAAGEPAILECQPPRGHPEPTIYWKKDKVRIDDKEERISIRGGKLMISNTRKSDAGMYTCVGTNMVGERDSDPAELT
Nature of the experiment: SPR (Biacore T200), Abcs35 immobilized on a CM5 chip, ROBO2 Ig1-Ig2-His as analyte; column head kon(1/Ms). As to the method:
[…] Association and dissociation were followed over time.
Based upon several criteria, Abcs25 and Abcs35 were selected for further characterization. Using flow cytometry, improvement in the binding EC₅₀ to human ROBO2 relative to the parental 93H2 was evaluated. Starting at 6.7 nM, 11-point, 3-fold dilution series were made for each antibody and used to stain HEK293 overexpressing human ROBO2 as described above for the ROBO2 fold selectivity (Example 2). […] In addition to measuring improved binding to human ROBO2, it was important to ensure that high affinity binding to both cynomolgus monkey ROBO2 and rat ROBO2 was maintained. Using HEK293 cells overexpressing either cynomolgus monkey ROBO2 or rat ROBO2, the relative dose-dependent binding of 93H2, Abcs25 and Abcs35 was evaluated as described above. High affinity binding to both cynomolgus monkey and rat ROBO2 was maintained in Abcs25 and Abcs35 (Table 4). […] Briefly, Abcs35 was immobilized to 300 resonance units (RU) on a CM5 chip. Association of ROBO2 Ig1-Ig2-His (ROBO2) was measured over 5 minutes and dissociation was followed for a period of 10 minutes.
(In general: Surface plasmon resonance follows binding to a sensor surface in real time, without labels.)

Bounds are passed on as bounds.

T1 sequence (Q9Y6N7 other isoform, or with tags, fused parts or gaps mutant limits assumed): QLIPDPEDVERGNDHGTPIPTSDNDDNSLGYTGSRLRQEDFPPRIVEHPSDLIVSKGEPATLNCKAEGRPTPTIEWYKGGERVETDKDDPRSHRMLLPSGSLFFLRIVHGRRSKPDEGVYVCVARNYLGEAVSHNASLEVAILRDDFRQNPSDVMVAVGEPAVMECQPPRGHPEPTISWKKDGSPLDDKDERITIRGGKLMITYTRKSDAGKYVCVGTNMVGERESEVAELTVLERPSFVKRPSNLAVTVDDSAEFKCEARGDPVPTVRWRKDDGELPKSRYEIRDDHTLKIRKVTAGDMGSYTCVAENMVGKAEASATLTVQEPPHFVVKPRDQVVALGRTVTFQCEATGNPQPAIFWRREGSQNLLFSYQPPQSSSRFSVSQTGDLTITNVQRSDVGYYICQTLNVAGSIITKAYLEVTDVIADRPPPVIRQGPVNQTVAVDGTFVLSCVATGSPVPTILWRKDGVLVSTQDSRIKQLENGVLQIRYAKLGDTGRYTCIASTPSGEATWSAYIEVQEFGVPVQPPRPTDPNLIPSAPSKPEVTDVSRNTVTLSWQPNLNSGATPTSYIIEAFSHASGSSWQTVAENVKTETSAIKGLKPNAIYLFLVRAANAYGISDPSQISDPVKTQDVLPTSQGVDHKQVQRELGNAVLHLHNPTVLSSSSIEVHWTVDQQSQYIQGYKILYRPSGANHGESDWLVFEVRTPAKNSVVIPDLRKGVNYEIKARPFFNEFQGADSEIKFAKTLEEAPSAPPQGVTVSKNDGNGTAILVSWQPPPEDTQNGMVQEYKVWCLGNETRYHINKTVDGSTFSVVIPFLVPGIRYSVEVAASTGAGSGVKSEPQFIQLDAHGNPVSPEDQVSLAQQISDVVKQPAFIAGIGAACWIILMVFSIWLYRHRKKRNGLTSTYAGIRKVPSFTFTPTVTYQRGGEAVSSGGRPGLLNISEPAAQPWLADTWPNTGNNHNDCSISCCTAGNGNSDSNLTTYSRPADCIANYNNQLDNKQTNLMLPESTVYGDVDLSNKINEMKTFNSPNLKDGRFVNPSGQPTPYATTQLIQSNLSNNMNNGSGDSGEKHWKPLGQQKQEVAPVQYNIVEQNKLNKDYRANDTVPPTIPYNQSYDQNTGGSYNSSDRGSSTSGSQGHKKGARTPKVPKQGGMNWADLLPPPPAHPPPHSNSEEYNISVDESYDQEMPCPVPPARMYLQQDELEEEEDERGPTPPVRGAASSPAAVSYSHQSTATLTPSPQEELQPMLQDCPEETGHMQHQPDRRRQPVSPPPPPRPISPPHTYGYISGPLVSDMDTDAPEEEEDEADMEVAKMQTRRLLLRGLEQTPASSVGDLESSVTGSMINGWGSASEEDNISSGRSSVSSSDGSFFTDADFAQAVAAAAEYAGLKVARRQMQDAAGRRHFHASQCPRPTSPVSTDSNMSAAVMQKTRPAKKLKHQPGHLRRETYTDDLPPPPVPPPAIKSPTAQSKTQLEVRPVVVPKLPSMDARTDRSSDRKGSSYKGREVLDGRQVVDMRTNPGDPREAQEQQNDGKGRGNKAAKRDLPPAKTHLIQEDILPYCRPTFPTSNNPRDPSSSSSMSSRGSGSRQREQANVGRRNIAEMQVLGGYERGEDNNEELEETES

B1: 93H2 (antibody, human IgG1, kappa, V domains shown)
VH: EVQLVQSGAEVKKPGASVKVSCKASGYTFTGYYMHWVRQAPGQGLEWMGWINPNSGATNFPQKFQGRVTMTRDTSITTAYMDLSRLRSDDTAVYYCARESGDDAFDIWGQGTMVTVSS
VL: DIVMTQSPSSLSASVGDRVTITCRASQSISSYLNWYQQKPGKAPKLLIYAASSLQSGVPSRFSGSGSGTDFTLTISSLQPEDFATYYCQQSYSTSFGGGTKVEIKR
notes: also called parental 93H2; 93H2 mAb
Regarding B1, in experiment [1], the “Fold Selectivity for RSK/KSR” value is above 100 fold.

B2: Abcs35-J (antibody, human IgG1, kappa)
heavy: EVQLVQSGAEVKKPGASVKVSCKASGYTFTGYYMHWVRQAPGQGLEWMGWINPKNGDTEFPQKFQGRVTMTRDTSITTAYMELSRLRSDDTAVYYCARESGDDAFDIWGQGTMVTVSSASTKGPSVFPLAPSSKSTSGGTAALGCLVKDYFPEPVTVSWNSGALTSGVHTFPAVLQSSGLYSLSSVVTVPSSSLGTQTYICNVNHKPSNTKVDKKVEPKSCDKTHTCPPCPAPEAAGAPSVFLFPPKPKDTLMISRTPEVTCVVVDVSHEDPEVKFNWYVDGVEVHNAKTKPREEQYNSTYRVVSVLTVLHQDWLNGKEYKCKVSNKALPAPIEKTISKAKGQPREPQVYTLPPSREEMTKNQVSLTCLVKGFYPSDIAVEWESNGQPENNYKTTPPVLDSDGSFFLYSKLTVDKSRWQQGNVFSCSVMHEALHNHYTQKSLSLSPGK
light: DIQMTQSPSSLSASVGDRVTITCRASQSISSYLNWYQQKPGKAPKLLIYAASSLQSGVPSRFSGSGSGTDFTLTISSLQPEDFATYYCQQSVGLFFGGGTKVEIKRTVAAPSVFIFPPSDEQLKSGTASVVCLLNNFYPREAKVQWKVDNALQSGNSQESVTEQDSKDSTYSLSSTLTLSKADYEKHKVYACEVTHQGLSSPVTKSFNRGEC
notes: germlined variant of Abcs35; also called ABCS-J
For the molecule B2, the binding result in experiment [2] is “no binding (tested: last point just below 10^1 nM)”.

B3: Abcs35 (antibody, human IgG1, kappa)
heavy: EVQLVQSGAEVKKPGASVKVSCKASGYTFTGYYMHWVRQAPGQGLEWMGWINPKNGDTEFPQKFQGRVTMTRDTSITTAYMDLSRLRSDDTAVYYCARESGDDAFDIWGQGTMVTVSSASTKGPSVFPLAPSSKSTSGGTAALGCLVKDYFPEPVTVSWNSGALTSGVHTFPAVLQSSGLYSLSSVVTVPSSSLGTQTYICNVNHKPSNTKVDKKVEPKSCDKTHTCPPCPAPEAAGAPSVFLFPPKPKDTLMISRTPEVTCVVVDVSHEDPEVKFNWYVDGVEVHNAKTKPREEQYNSTYRVVSVLTVLHQDWLNGKEYKCKVSNKALPAPIEKTISKAKGQPREPQVYTLPPSREEMTKNQVSLTCLVKGFYPSDIAVEWESNGQPENNYKTTPPVLDSDGSFFLYSKLTVDKSRWQQGNVFSCSVMHEALHNHYTQKSLSLSPGK
light: DIVMTQSPSSLSASVGDRVTITCRASQSISSYLNWYQQKPGKAPKLLIYAASSLQSGVPSRFSGSGSGTDFTLTISSLQPEDFATYYCQQSVGLFFGGGTKVEIKRTVAAPSVFIFPPSDEQLKSGTASVVCLLNNFYPREAKVQWKVDNALQSGNSQESVTEQDSKDSTYSLSSTLTLSKADYEKHKVYACEVTHQGLSSPVTKSFNRGEC
notes: fully human IgG1; VH of Ab96 with VL of Ab123
In turn, B3 came in with a kon with Human ROBO2 Ig1-Ig2-His of 2.96e+07 M⁻¹ s⁻¹.

Broadly, the kon is the rate constant with which the complex forms. A lower kon goes with slow association.

Source of the values: patent US20200157212A1 (Pfizer, published 2020).
